The values that follow come from patent US20230241113A1 (IMMATICS BIOTECHNOLOGIES, published 2023).

This test has as its target T1, HLA-A*02:01 (human).
T1 construct: captured on streptavidin plates, detected with anti-β2m; also called peptide-receptive MHC molecules; MHC class I
The test can be described thus: UV-ligand exchange + anti-β2m ELISA; exchange yield grade: ≥10% +, ≥20% ++, ≥50 +++, ≥75% ++++. Here is the method: The individual peptide-MHC complexes were produced by UV-ligand exchange, where a UV-sensitive peptide is cleaved upon UV-irradiation and exchanged with the peptide of interest as analyzed. Only peptide candidates that can effectively bind and stabilize the peptide-receptive MHC molecules prevent dissociation of the MHC complexes. To determine the yield of the exchange reaction, an ELISA was performed based on the detection of the light chain (β2m) of stabilized MHC complexes. The assay was performed as generally described in Rodenko et al. (Rodenko et al., 2006).
96 well MAXISorp plates (NUNC) were coated over night with 2 μg/ml streptavidin in PBS at room temperature, washed 4× and blocked for 1 h at 37° C. in 2% BSA containing blocking buffer. Refolded HLA-A*02:01/MLA-001 monomers served as standards, covering the range of 15-500 ng/ml. Peptide-MHC monomers of the UV-exchange reaction were diluted 100 fold in blocking buffer. Samples were incubated for 1 h at 37° C., washed four times, incubated with 2 μg/ml HRP conjugated anti-β2m for 1 h at 37° C., washed again and detected with TMB solution that is stopped with […]. Absorption was measured at 450 nm. Candidate peptides that show a high exchange yield (preferably higher than 50%, most preferred higher than 75%) are generally preferred for a generation and production of antibodies or fragments thereof, and/or T cell receptors or fragments thereof, as they show sufficient avidity to the MHC molecules and prevent dissociation of the MHC complexes.
(In general: An ELISA detects its analyte on a solid surface through an enzyme-linked reagent.)
On to FLQEGDLISV (also called FLQEGDLISV) [altORF-007], for which the peptide exchange yield is no less than 75%. Turning to KLPEGHLPEV (also called KLPEGHLPEV) [AHNAK2-003], the peptide exchange yield was no less than 75%. For the molecule ILQSLVPAA (also called ILQSLVPAA) [altORF-006], the peptide exchange yield was no less than 75%.
